Test results from patent CN114702578A (BAISI MEDICAL DIAGNOSTICS TECH BEIJING CO LTD, dated 2022).

Target: T1, 新型冠状病毒野生型Spike RBD蛋白 (新型冠状病毒野生型 (SARS-CoV-2 wild type), UniProt P0DTC2 319-537)
T1 construct: domain: Spike RBD
Assay: ELISA binding experiment (Fig. 3)

B1: 克隆号为3A7C12的抗体 (antibody, V domains shown)
VH: EVQLVESGGGLVKPGGSLRLSCAASGFTFSSYSMNWVRQAPGKGLEWVSSISSGSSYIYFADSVKGRFTISRDNAKNSLFLQMNSLRAEDTATYYCARAPLGYDSSGYFTMYYFDYWGQGTLVTVSS
VL: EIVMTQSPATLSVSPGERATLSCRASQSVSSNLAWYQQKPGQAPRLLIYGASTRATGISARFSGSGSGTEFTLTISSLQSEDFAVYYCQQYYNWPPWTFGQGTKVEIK
notes: also called 3A7C12克隆号抗体
binding result: no binding
